Reference: the Human Domainome abundance scans (Beltran et al. 2025)
± gives the uncertainty stated by the source.

B1: Peroxisome proliferator-activated receptor delta, residues 71 to 145; numbered along this chain, Q03181 (parent)
chain: NMECRVCGDKASGFHYGVHACEGCKGFFRRTIRMKLEYEKCERSCKIQKKNRNKCQYCRFQKCLALGMSHNAIRF

Variants of: B1
Experiment: abundance fitness (aPCA) (normalised: wild type 0, dead -1); higher = more abundant; growth selection in yeast, the domain comes from the species named
Conditions: Homo sapiens

Variant | abundance fitness
NMECRVCGDKASGFHYGVHACEGCKGFFRRTIRMKLEYEKCERSCKIQKKNRNYCQYCRFQKCLALGMSHNAIRF | 0.17 ± 0.07
NMECRVCGDKASGFHYGVHACEGCKGFFRRTIRMKLEYEKCERSCKIQKKNRNKCQYCAFQKCLALGMSHNAIRF | -0.459 ± 0.062
NMECRVCGDKASGFHYGVHACEGCKGFFRRTIRMKLEYEKCERSCKIQKKNRNKCQYCCFQKCLALGMSHNAIRF | -0.442 ± 0.1
NMECRVCGDKASGFHYGVHACEGCKGFFRRTIRMKLEYEKCERSCKIQKKNRNKCSYCRFQKCLALGMSHNAIRF | 0.008 ± 0.039
NMECRVCGDKASGFHYGVHACEGCKGFFRRTIRMKLEYEKCERSCKIQKKNRNKCFYCRFQKCLALGMSHNAIRF | -0.079 ± 0.096
NMECRVCGDKASGFHYGVHACEGCKGFFRRTIRMKLEYEKCERSCKIQKKNRNKCRYCRFQKCLALGMSHNAIRF | -0.227 ± 0.037
NMECRVCGDKASGFHYGVHACEGCKGFFRRTIRMKLEYEKCERSCKIQKKNRNKCDYCRFQKCLALGMSHNAIRF | 0.189 ± 0.052
NMECRVCGDKASGFHYGVHACEGCKGFFRRTIRMKLEYEKCERSCKIQKKNRNKCIYCRFQKCLALGMSHNAIRF | -0.599 ± 0.19
NMECRVCGDKASGFHYGVHACEGCKGFFRRTIRMKLEYEKCERSCKIQKKNRNKCYYCRFQKCLALGMSHNAIRF | -0.116 ± 0.076
NMECRVCGDKASGFHYGVHACEGCKGFFRRTIRMKLEYEKCERSCKIQKKNRNKCEYCRFQKCLALGMSHNAIRF | 0.077 ± 0.042
NMECRVCGDKASGFHYGVHACEGCKGFFRRTIRMKLEYEKCERSCKIQKKNRNKCPYCRFQKCLALGMSHNAIRF | -0.025 ± 0.046
NMECRVCGDKASGFHYGVHACEGCKGFFRRTIRMKLEYEKCERSCKIQKKNRNKCGYCRFQKCLALGMSHNAIRF | 0.002 ± 0.031
NMECRVCGDKASGFHYGVHACEGCKGFFRRTIRMKLEYEKCERSCKIQKKNRNKCWYCRFQKCLALGMSHNAIRF | -0.341 ± 0.059
NMECRVCGDKASGFHYGVHACEGCKGFFRRTIRMKLEYEKCERSCKIQKKNRNKCAYCRFQKCLALGMSHNAIRF | 0.074 ± 0.035
NMECRVCGDKASGFHYGVHACEGCKGFFRRTIRMKLEYEKCERSCKIQKKNRNKCNYCRFQKCLALGMSHNAIRF | -0.145 ± 0.084
NMECRVCGDKASGFHYGVHACEGCKGFFRRTIRMKLEYEKCERSCKIQKKNRNKCLYCRFQKCLALGMSHNAIRF | -0.031 ± 0.039
NMECRVCGDKASGFHYGVHACEGCKGFFRRTIRMKLEYEKCERSCKIQKKNRNKCCYCRFQKCLALGMSHNAIRF | 0.005 ± 0.067
NMECRVCGDKASGFHYGVHACEGCKGFFRRTIRMKLEYEKCERSCKIQKKNRNKCTYCRFQKCLALGMSHNAIRF | -0.321 ± 0.056
NMECRVCGDKASGFHYGVHACEGCKGFFRRTIRMKLEYEKCERSCKIQKKNRNKCKYCRFQKCLALGMSHNAIRF | -0.214 ± 0.063

Variant | abundance fitness
NMECRVCGDKASGFHYGVHACEGCKGFFRRTIRMKLEYEKCERSCKIQKKNRNKCMYCRFQKCLALGMSHNAIRF | -0.066 ± 0.062
NMECRVCGDKASGFHYGVHACEGCKGFFRRTIRMKLEYEKCERSCKIQKKNRNKTQYCRFQKCLALGMSHNAIRF | -0.393 ± 0.11
NMECRVCGDKASGFHYGVHACEGCKGFFRRTIRMKLEYEKCERSCKIQKKNRNKRQYCRFQKCLALGMSHNAIRF | -0.868 ± 0.076
NMECRVCGDKASGFHYGVHACEGCKGFFRRTIRMKLEYEKCERSCKIQKKNRNKIQYCRFQKCLALGMSHNAIRF | -0.67 ± 0.22
NMECRVCGDKASGFHYGVHACEGCKGFFRRTIRMKLEYEKCERSCKIQKKNRNKYQYCRFQKCLALGMSHNAIRF | -0.676 ± 0.32
NMECRVCGDKASGFHYGVHACEGCKGFFRRTIRMKLEYEKCERSCKIQKKNRNKWQYCRFQKCLALGMSHNAIRF | -0.858 ± 0.087
NMECRVCGDKASGFHYGVHACEGCKGFFRRTIRMKLEYEKCERSCKIQKKNRNKKQYCRFQKCLALGMSHNAIRF | -0.646 ± 0.18
NMECRVCGDKASGFHYGVHACEGCKGFFRRTIRMKLEYEKCERSCKIQKKNRNKPQYCRFQKCLALGMSHNAIRF | -0.864 ± 0.34
NMECRVCGDKASGFHYGVHACEGCKGFFRRTIRMKLEYEKCERSCKIQKKNRNKSQYCRFQKCLALGMSHNAIRF | -0.823 ± 0.12
NMECRVCGDKASGFHYGVHACEGCKGFFRRTIRMKLEYEKCERSCKIQKKNRNKAQYCRFQKCLALGMSHNAIRF | -0.806 ± 0.14
NMECRVCGDKASGFHYGVHACEGCKGFFRRTIRMKLEYEKCERSCKIQKKNRNKLQYCRFQKCLALGMSHNAIRF | -0.98 ± 0.13
NMECRVCGDKASGFHYGVHACEGCKGFFRRTIRMKLEYEKCERSCKIQKKNRNKVQYCRFQKCLALGMSHNAIRF | -1.03 ± 0.13
NMECRVCGDKASGFHYGVHACEGCKGFFRRTIRMKLEYEKCERSCKIQKKNRNKHQYCRFQKCLALGMSHNAIRF | -0.441 ± 0.29
NMECRVCGDKASGFHYGVHACEGCKGFFRRTIRMKLEYEKCERSCKIQKKNRNKGQYCRFQKCLALGMSHNAIRF | -0.807 ± 0.057
NMECRVCGDKASGFHYGVHACEGCKGFFRRTIRMKLEYEKCERSCKIQKKNRNKDQYCRFQKCLALGMSHNAIRF | -1.39 ± 0.49
NMECRVCGDKASGFHYGVHACEGCKGFFRRTIRMKLEYEKCERSCKIQKKNRNKMQYCRFQKCLALGMSHNAIRF | -0.827 ± 0.17
NMECRVCGDKASGFHYGVHACEGCKGFFRRTIRMKLEYEKCERSCKIQKKNRNKFQYCRFQKCLALGMSHNAIRF | -0.824 ± 0.27
NMECRVCGDKASGFHYGVHACEGCKGFFRRTIRMKLEYEKCERSCKIQKKNRNKEQYCRFQKCLALGMSHNAIRF | -1.03 ± 0.22
